Laboratory results taken from US20190300590A1.

What was measured:
IL23R_huFC (human) [1] = target: IL23R_huFC (human) (UniProt Q5VWK5); test: IL23-IL23R competitive binding ELISA
Target sequence in this assay (Q5VWK5 24-353 limits assumed): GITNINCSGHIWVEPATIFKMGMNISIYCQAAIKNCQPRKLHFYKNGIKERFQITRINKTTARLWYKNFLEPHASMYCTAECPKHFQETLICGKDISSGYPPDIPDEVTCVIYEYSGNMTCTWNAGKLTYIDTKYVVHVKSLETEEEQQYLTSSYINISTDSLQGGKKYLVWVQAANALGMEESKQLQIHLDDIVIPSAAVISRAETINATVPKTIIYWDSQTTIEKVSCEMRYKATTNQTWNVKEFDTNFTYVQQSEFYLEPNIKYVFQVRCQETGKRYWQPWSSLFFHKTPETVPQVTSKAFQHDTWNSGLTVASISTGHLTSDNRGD

IL23R_huFC (human) [2] = target: IL23R_huFC (human) (UniProt Q5VWK5); test: Human IL23R/IL23 ELISA
Target sequence in this assay (Q5VWK5 24-353): as the sequence (Q5VWK5 24-353 limits assumed) above

Rat IL-23R_huFC (rat) = test: rat ELISA vs IL-23
[3] = target: IL-23R on human cells (IL-23R-expressing DB cells; human NK cells) (human) (UniProt Q5VWK5); test: cell-based or functional assay
Sequence of IL-23R on human cells (IL-23R-expressing DB cells; human NK cells) (human) (Q5VWK5 24-629): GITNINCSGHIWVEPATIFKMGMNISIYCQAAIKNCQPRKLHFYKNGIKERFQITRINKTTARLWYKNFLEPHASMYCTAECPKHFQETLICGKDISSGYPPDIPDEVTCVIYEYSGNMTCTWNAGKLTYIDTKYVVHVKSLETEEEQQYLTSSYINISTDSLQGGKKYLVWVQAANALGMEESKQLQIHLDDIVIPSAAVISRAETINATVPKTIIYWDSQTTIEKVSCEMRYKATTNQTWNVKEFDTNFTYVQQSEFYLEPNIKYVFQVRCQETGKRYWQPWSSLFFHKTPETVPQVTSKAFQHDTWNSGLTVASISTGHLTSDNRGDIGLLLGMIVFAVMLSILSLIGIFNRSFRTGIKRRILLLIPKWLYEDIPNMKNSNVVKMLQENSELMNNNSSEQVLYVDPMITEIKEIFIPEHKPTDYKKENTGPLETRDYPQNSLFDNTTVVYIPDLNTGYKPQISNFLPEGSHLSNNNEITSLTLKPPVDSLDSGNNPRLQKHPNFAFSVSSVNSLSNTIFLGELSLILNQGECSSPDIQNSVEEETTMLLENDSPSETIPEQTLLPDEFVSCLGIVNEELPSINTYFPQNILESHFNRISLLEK

Substance | IC50 (IL23R_huFC (human) [2]) | other results
[Ac-[Pen]-QTWQ-[Pen]-[Phe[4-(2-aminoethoxy)]-[2-Nal]-[Aib]-[Lys(Ac)]-NQ-NH2]2PEG25 (peptide) |  | IC50 (IL23R_huFC (human) [1]): 10 to 25 nM
Ac-[D-Arg]-Cyclo-[[Abu]-QTWQC]-[Phe(4-2ae)]-[2-Nal]-[THP]-EDD-NH2 (peptide) | 10 to 100 nM | 
Ac-Cyclo-[[Abu]-QTWQC]-[Phe[4-(2-aminoethoxy)]]-[2-Nal]-[Acvc]-ENN-NH2 (peptide) |  | IC50 (Rat IL-23R_huFC (rat)): < 10 nM
Ac-[D-Arg]-Cyclo-[[Abu]-QTWQC]-[Phe(4-2ae)]-[2-Nal]-[THP]-EDN-NH2 (peptide) | 10 to 100 nM | 
Ac-Cyclo-[[Abu]-QTWQC]-[Phe[4-(2-aminoethoxy)]]-[2-Nal]-[Acbc]-ENN-NH2 (peptide) |  | IC50 (Rat IL-23R_huFC (rat)): < 10 nM
Ac-[D-Arg]-Cyclo-[[Abu]-ETWQC]-[Phe(4-2ae)]-[2-Nal]-[THP]-EDN-NH2 (peptide) | 10 to 100 nM | 
Alexa488-PEG4 through [D-Arg]: [D-Arg]-Cyclo-[[Abu]-QTWQC]-[Phe(4-2ae)]-[2-Nal]-[THP]-ENN-NH2 (peptide) |  | pStat3 HTRF IC50 [3]: < 0.01 µM
Ac-Cyclo-[[Abu]-QTWQC]-[Phe[4-(2-aminoethoxy)]]-[2-Nal]-[Achc]-ENN-NH2 (peptide) |  | IC50 (Rat IL-23R_huFC (rat)): < 10 nM
[Ac-[Pen]-QTWQ-[Pen]-[Phe[4-(2-aminoethoxy)]-[2-Nal]-[Aib]-[Lys(Ac)]-NQ-NH2]2DIG (peptide) |  | IC50 (IL23R_huFC (human) [1]): 25 to 100 nM

Now from value to substance, other results behind:

IC50 (IL23R_huFC (human) [2]) | Substance | other results
1 to 10 nM | Ac-[D-Arg]-Cyclo-[[Abu]ETWQC]-[Phe(4-2ae)]-[2-Nal]-[THP]-ENN-OH (peptide) | 
1 to 10 nM | Ac-[D-Arg]-Cyclo-[[Abu]-QTWEC]-[Phe(4-2ae)]-[2-Nal]-[THP]-ENN-NH2 (peptide) | 
10 to 100 nM | Ac-Cyclo-[[Abu]-QTWQC]-[Phe(4-2ae)]-[2-Nal]-[THP]-EDN-OH (peptide) | 
10 to 100 nM | Ac-[D-Arg]-Cyclo-[[Abu]-QTWQC]-[Phe(4-2ae)]-[2-Nal]-[THP]-END-OH (peptide) | 
1 to 10 nM | Ac-[D-Arg]-Cyclo-[[Abu]-ETWQC]-[Phe(4-2ae)]-[2-Nal]-[THP]-ENN-NH2 (peptide) | 
10 to 100 nM | Ac-[D-Arg]-Cyclo-[[Abu]-QTWEC]-[Phe(4-2ae)]-[2-Nal]-[THP]-EDN-NH2 (peptide) | 
1 to 10 nM | Ac-[D-Arg]-Cyclo-[[Abu]-QTWEC]-[Phe(4-2ae)]-[2-Nal]-[THP]-ENN-OH (peptide) | 
1 to 10 nM | Ac-[D-Arg]-Cyclo-[Abu-ETWEC]-[Phe(4-2ae)]-[2-Nal]-[THP]-ENN-NH2 (peptide) | 
1 to 10 nM | Ac-[D-Arg]-Cyclo-[[Abu]-QTWOC]-[Phe(4-2ae)]-[2-Nal]-[THP]]-END-NH2 (peptide) | 
1 to 10 nM | Ac-[D-Arg]-Cyclo-[[Abu]-ETWQC]-[Phe(4-2ae)]-[2-Nal]-[Tetrahydropyran-A]-END-NH2 (peptide) | 
1 to 10 nM | Ac-[D-Arg]-Cyclo-[[Abu]-QTWEC]-[Phe(4-2ae)]-[2-Nal]-[THP]-END-NH2 (peptide) | 
